Source: patent US20100068806A1, “NOVEL METHODS AND REAGENTS DIRECTED TO PRODUCTION OF CELLS” (SUOMEN PUNAINEN RISTI, VERIPALVELU, priority 2007, published 2010)
“Also recorded” adds a separate entry of the source.

Legend:
hESC [1] = assay: Short (5 days) hESC culture on ECA types and conjugates; assay type: cell-based, human; design: key: +++: many cells attached on day 5; ++: scattered cells on day 5; +: few cells left on day 5; −: no attached cells after day 5; conditions: day 5
hESC [2] = assay: Fluorescein-labelled lectin staining of hESC colonies on mouse feeder layers; assay type: binding, human; design: key to lectin ligand profile, hESC: + present in cell surface; − not present in cell surface; conditions: for inhibition of lectin binding to hESC by carbohydrate: MAA or PSA binding
Method: (§1) Lectin staining. Fluorescein-labeled lectins were from EY Laboratories (USA) and the stainings were performed essentially after manufacturer's instructions. The specificity of the staining was controlled in parallel experiments by inhibiting lectin binding with specific oligo- and monosaccharides.
(§2) From a practical perspective stem cell research would be best served by the identification of target structures on cell surface. To investigate whether individual glycan structures we had identified would be accessible to reagents targeting them at the cell surface we performed lectin labelling of two candidate structure types. Lectins are proteins that recognize glycans with specificity to certain glycan structures also in hESC (Venable et al., 2005). To study the localization of glycan components in hESC, stem cell colonies grown on mouse feeder cell layers were labeled in vitro by fluorescein-labelled lectins (FIG. 2). […] Such glycans would thus be available for recognition by more specific glycan-recognizing reagents such as antibodies. In contrast, the cell surfaces were not labelled by Pisum sativum agglutinin (PSA) that recognizes α-mannosylated glycans (FIG. 2b).
The glycome profile data was used to design glycan-specific labeling reagents for hESC. The most interesting glycan types were chosen to study their expression profiles by lectin histochemistry as exemplified in FIG. 5 for the lectins that recognize either α2,3-sialylated (MAA-lectin, FIG. 5A.) binding to the hESC cells or α-mannosylated glycans (PSA-lectin, FIG. 5B.) binding to the surfaces of feeder cells (MEF). The binding of the lectin reagents was inhibited by specific carbohydrate inhibitors, sialylα2-lactose and mannose, respectively (FIG. 5C. and 5D.).

[3] = test system: hESC lines FES29 and FES30; assay: hESC culture on lectin-coated plates in mEF-conditioned media; assay type: cell-based, human; design: key to Growth: +++: cells attach and can grow; cells attach and can grow but less cells/slower growth than +++; +: only few cells attach, one split; −: no cells after p1, cannot be splitted; #: less cells attach and slower early growth; conditions: for Growth: culture experiment in mEF-conditioned media; for growth of hESC on coated plates: mEF-conditioned media
Source text: FES 30 hESC line was used. hESCs were transferred from mEF to Matrigel™ and cultured according to the protocol found on the Geron Corporation website at: http://www.geron.com/showpage.asp?code=prodstprot
All passages were done using collagenase. The passages were also done using PBS without collagenase treatment.
The cells were transferred to ECA-coated 12-well plates (Corning) and cultured in mEF-conditioned media for 5-11 days, whereafter they were divided 1:2 or 3:4. RNA samples were extracted from a cell sample every second or third passage and analyzed for expression of stem cell and differentiation markers (FIG. 31).
The ECA (EY Laboratories, USA; L-5901-5) coating was performed as follows for 12 well plates. ECA lectin was stored frozen as stock solution of 1 mg/ml. It was thawed on ice and diluted as 100 μl lectin stock+600 μl PBS, sterile filtered (Millex-GV, SLGV 013 SL, 0.22 μm) in laminar hood. This solution, i.e. 100 μg/700 μl PBS solution was applied to each well and incubated overnight at +4 C. On the following day lectin solution was removed and wells were washed with 3×1 ml of sterile PBS.
(§3) hESC were cultured at least two passages feeder-free on Matrigel (BD Biosciences, Bedford, Mass., USA) before plating on lectin. Matrigel-culturing was continued side by side lectin-culturing as comparison. Cells were cultured during the whole experiment in standard Knockout™ DMEM media with 20% Knockout™ Serum Replacement and 8 ng/ml of recombinant basicFGF (all from Gibco/Invitrogen, Paisley, UK; Mikkola M. et al. BMC Dev. Biol. 6:40, 2006) conditioned on mouse feeder cells for 24 h. Cells were detached with collagenase IV while splitting.
(§4) Lectins were diluted in PBS and sterile filtered before applying on Nunclon cell culture plates (Nunc, Roskilde, Denmark). The amount of lectin was 27 μg/cm^2 and plates were incubated over night at +4° C. Before splitting cells on lectin wells were washed three times with PBS.

[4] = test system: SSEA-4 enriched human embryonic stem cells (hESC); conditions: Venable et al. 2005; cited from earlier work
hESC (FES29) = assay: FACS of Tra-1-60 and SSEA-3 in hESC cultured on lectins or Matrigel; assay type: cell-based, human
Method: as §3, §4

[5] = test system: Human Bone marrow-derived mesenchymal stem cells (MSC); assay: Flow cytometry of CD105, CD45, CD73, HLA-DR in MSC grown on lectins; assay type: cell-based; conditions: MSC grown on lectin
Method: Briefly, bone marrow obtained during orthopedic surgery was cultured in Minimum Essential Alpha-Medium (α-MEM), supplemented with 20 mM HEPES, 10% FCS, 1× penicillin-streptomycin and 2 mM L-glutamine (all from Gibco). After a cell attachment period of 2 days the cells were washed with Ca2+ and Mg2+ free PBS (Gibco), and subcultured at a density of 2000-3000 cells/cm2 in the same media on 24-well chamber slides coated with lectin molecules. Cells were crown at 37° C. with 5% CO2, fresh media was changed twice a week until near confluence. MSCs were cultured on lectin coated well plates for five passages. MSC passages 5-10 were used in the experiment.
Proliferating MSCs in passage 5 were grown on different lectins for 5 days. Cells were washed with PBS and harvested into single cell suspensions by Versene solution. Detached cells were centrifuged at 600×g for five minutes at room temperature. Cell pellet was washed twice with 0.3% BSA-PBS, centrifuged at 600×g and resuspended in 0.3% BSA-PBS. Cells were placed in conical tubes in aliquots of 50 000 cells each. Cell aliquots were incubated with antibodies in dilution of 2 μl/10^5 cells for 30 minutes at +4° C. in the dark. After incubation cells were washed with 0.3% BSA-PBS, centrifuged and resuspended in 0.3% BSA-PBS.
Unlabeled cells and cells grown on plastic were used as controls. Antibody binding was detected by flow cytometry (FACSAria, Becton Dickinson). Data analysis was made with FACSDiva™ Flow Cytometry Software Version 5.02.

RUNX2 = assay: Quantitative RT-PCR of RUNX2 in MSC grown on lectins; assay type: cell-based, human
Source text: (§5) Total cellular RNA from the BM derived mesenchymal stem cells grown for five passages on selected lectins was extracted by using RNeasy miniprep-kit (Qiagen, Chatsworth, Calif.) according to the manufacturers's instructions. RNA was then reverse transcribed to cDNA with High Capacity cDNA Reverse Transcription reagents according to manufacturers instructions (Applied Biosystems) and used as a template in TaqMan® PCR reaction. TaqMan® PCR reaction was used to estimate the quantitative levels of stem cell differentiation markers. TaqMan® PCR reaction performed in standard conditions using TaqMan® Universal Gene Expression Master Mix (Applied Biosystems) and Pre-developed Inventored Gene Expression Assays for FABP4 (Hs00609791_m1) and RUNX2 (Hs00231692_m1) (Applied Biosystems).
(§6) Real time quantitative PCR reactions were performed with the ABI PRISM 7000 Sequence Detector System (Applied Biosystem) in standard conditions. PCR amplifications were performed in a total volume of 50 μl, containing 1 μl cDNA sample. TaqMan® Universal Gene Expression Master Mix (Applied Biosystems) was used in all experiments. Pre-developed Inventored Gene Expression Assays for FABP4 (Hs00609791_m1) and RUNX2 (Hs00231692_m1) (Applied Biosystems) were used to estimate the quantitative levels of stem cell differentiation markers. Pre-developed TaqMan® assay reagents for endogenous control human TATA-box binding gene labeled with VIC reporter dye (Hs 999999_m19) was used for amplification of control gene.
(§7) PCR was started with 2 min at 50° C. and the initial 10 min denaturing temperature was 94° C., followed by a total of 40 cycles of 15 s of denaturing and 1 min of annealing and elongation at 60° C.

FABP4 = assay: Quantitative RT-PCR of FABP4 in MSC grown on lectins; assay type: cell-based, human
Source text: as §5, §6, §7

[6] = test system: bone marrow derived mesenchymal stem cells (BM MSC); assay: FITC-lectin staining of fixed BM MSC, fluorescence microscopy; assay type: binding, human
[7] = test system: human embryonic stem cell (hESC) lines FES 22 and FES 30; assay: FITC-lectin and antibody labelling of hESC, fluorescence microscopy; assay type: binding
mouse feeder cell (mEF) = assay: FITC-lectin and antibody labelling of mouse feeder cells, fluorescence microscopy; assay type: binding; conditions: fixed cells
[8] = test system: cord blood mononuclear cell (CB MNC); assay: FACS analysis of FITC-lectin binding to cord blood mononuclear cells; design: species or system human; conditions: seven CB MNC preparations
mouse feeder cells (MEF) = assay: Fluorescein-labelled lectin staining of mouse feeder cells in hESC culture; assay type: binding; design: key: + present in cell surface; − not present in cell surface; conditions: MEF cell surface
Method: as §1, §2
The glycome profile data was used to design glycan-specific labeling reagents for hESC. […]

[9] = start point (UEA-1/DSA/Galectin 1 experiment)
[10] = MSC grown five passages on lectin

With “rGal-1: rGal-1, presumably recombinant galectin-1, coating in short hESC culture” the “short (5 days) culting” value (hESC [1]) was “−”.

In the case of `O=C[C@@H](O)[C@@H](O)[C@H](O)[C@H](O)CO` [D-mannose], the “inhibition of lectin binding to hESC by carbohydrate” value (“inhibition of lectin binding to hESC” below) (hESC [2]) is reported as “inhibited; also recorded: blocks PSA binding”.

For “Galectin-1 in solution: Galectin-1 added in solution, not immobilized”, the Growth [3] was “−” and the “growth of hESC on coated plates” value [3] was “could not support the cell growth”.

For “PHA-E: Phaseolus vulgaris lectin recognizing N-glycan core epitope (bisecting GlcNAc)”, the Growth [3] is given as “+++#”, the “growth of hESC on coated plates” value [3] is given as “weak” and the “lectin binding to SSEA-4 enriched hESC” value [4] is given as “partially bind to hESC”.

In the case of PHA-L: Phaseolus vulgaris lectin, the “lectin binding to SSEA-4 enriched hESC” value [4] is given as “partially bind to hESC”.

In the case of `CC(=O)N[C@H]1[C@H]([C@H](O)[C@H](O)CO)O[C@@](O[C@H]2[C@@H](O)[C@@H](CO)O[C@@H](O[C@H]3[C@H](O)[C@@H](O)C(O)O[C@@H]3CO)[C@@H]2O)(C(=O)O)C[C@@H]1O` (some centres unmarked) [3′-sialyllactose], the “inhibition of lectin binding to hESC” value (hESC [2]) is reported as “blocks MAA binding” and the “inhibition of lectin binding to hESC” value (hESC [2]; listed as α3′-sialyllactose) is reported as “inhibited”.

B1: Galectin-1: bovine Galectin-1, N-acetyllactosamine binding lectin (protein, UniProt P11116 2-135, looked up)
Galectin-1: ACGLVASNLNLKPGECLRVRGEVAADAKSFLLNLGKDDNNLCLHFNPRFNAHGDVNTIVCNSKDAGAWGAEQRESAFPFQPGSVVEVCISFNQTDLTIKLPDGYEFKFPNRLNLEAINYLSAGGDFKIKCVAFE
With B1 the “passages hESC cultured on lectin” value ([3]; FES29) was 7 passages, the Growth [3] was “+++” and the “growth of hESC on coated plates” value [3] was “also effective”. The “expression of SSEA-3” value (hESC (FES29); FES29, after 7 passages) was 32.3%, the “expression of Tra-1-60” value (hESC (FES29); FES29, after 7 passages) was 21.6% and the SSEA-3 (hESC (FES29); p7) was 32.3. For the same molecule, the Tra-1-60 (hESC (FES29); p7) was 21.6, the SSEA-3 (hESC (FES29); [9]) was 89.2 and the Tra-1-60 (hESC (FES29); [9]) was 69.6. For the same molecule, the “CD 45” value [5] was “neg”, the CD73 [5] was “pos” and the CD105 [5] was “pos”. For the same molecule, the HLA-DR [5] was 23.8%, the “RUNX- Endogenous control gene avarage Δct” value (RUNX2; [10]) was 2.76 and the “Expression relative to plastic 2e − ΔΔCt” value (RUNX2; RUNX) was 0.31. The “ΔCt − Δctplastic relative ΔΔCt” value (RUNX2; RUNX, relative to plastic) was 1.87, the “Expression relative to plastic 2e − ΔΔCt” value (FABP4; FABP) was 12.85 and the “ΔCt − Δctplastic relative ΔΔCt” value (FABP4; FABP, relative to plastic) was −1.86. The “FABP - Endogenous control gene avarage Δct” value (FABP4; [10]) was 5.24.

B2: PNA: peanut lectin, Gal/GalNAc structures (protein, UniProt P02872 24-273, looked up)
Galactose-binding lectin: AETVSFNFNSFSEGNPAINFQGDVTVLSNGNIQLTNLNKVNSVGRVLYAMPVRIWSSATGNVASFLTSFSFEMKDIKDYDPADGIIFFIAPEDTQIPAGSIGGGTLGVSDTKGAGHFVGVEFDTYSNSEYNDPPTDHVGIDVNSVDSVKTVPWNSVSGAVVKVTVIYDSSTKTLSVAVTNDNGDITTIAQVVDLKAKLPERVKFGFSASGSLGGRQIHLIRSWSFTSTLITTTRRSIDNNEKKIMNMASA
In the case of B2, the “lectin binding / labelling of BM MSC” value ([6]; FITC-labelled lectin, cell surface of cultured BM MSC) is reported as “less intense labelling”, the “effect of sialidase treatment of the cells on lectin binding” value ([6]; sialidase treatment before lectin binding) is reported as “also increased by sialidase treatment” and the “labelling of hESC” value ([7]; fixed cells on mouse feeder layer) is reported as “Abundant labelling”. For the same molecule, the “specific binding, hESC versus mEF” value ([7]; hESC compared with mEF) was “bound specifically to hESC but not to mEF”, the “labelling of mEF” value (mouse feeder cell (mEF)) was “absence of specific binding” and the “lectin binding to CB MNC” value [8] was “variable binding between CB samples”. The “lectin ligand profile, hESC” value (hESC [2]; hESC cell surface) was “+”, the “lectin ligand profile, MEF” value (mouse feeder cells (MEF)) was “−” and the “lectin binding to SSEA-4 enriched hESC” value [4] was “high binding percentage”.
